Results: the DeepSol protein solubility set

Assay: soluble on expression in E. coli; label from the status in PepcDB or PDB records

| Sequence | soluble on expression in E. coli |
| --- | --- |
| MPSNSTTGAQKCSRKVHSLKFKLEAIEYASKFSKTKAARDLKVSRQCIQDWVAQKTKIESQLKSTNKTAPKRLEGGGRPVQRETVDESVLRWFRDQREKKFRVSRNLIRQKAKEICGEDDFKASTGWLQKFMRRHHLSTRRATTTCQKEPDEFAKKIVDYVLFVEKMRLQNKYTDTHIFAADETAVYLDFSNSLTLNEKGAREVGKTNTLFFYFSHPMMKRCLILFQVPVKTTGHEKMHVTVLLTARADGYKCRPYVLLPRTRPDKEIAARFKNSLQLSWCNRTFFNDEVTEDYLNTIIGPPFFGKRLLAWDAFRCHISDATKRVLKNLKVDTAVVPGGCTKFVQAPDVYWNSPFKASIRRSYEDWMVHGQKSFTKSNNMRPPSMLQYLEWIENAWNDLPKDLILKSFKGCALTIATDGSEDNQVHCFAPNGSIPSGLDLLNSTRIENSLVDLVQDIGIDESQEEGNESDNSIISVG | not soluble |
| MSDPYPATEAHAQRAAKSPPKSLLDRLLSLVRREPEDREGIKAILEAAHERELLDAESYAMIKGALAVSERTVADIMVPRSRMDLLDISQPLPQLLATIIETAHSRFPVYEDDRDNIIGILLAKDLLRYMLEPALDIRSLVRPAVFIPEVKRLNVLLREFRASRNHLAIVIDEHGGISGLVTMEDVLEQIVGDIEDEFDEDEEESIFPEGENQWRLTASTDISHFNATFATDLPDDEYDSVGGWLGGQLGRIPRRGDSADHDGLHIEVVRADARRALWLRVRRNAGAQPPASAAE | soluble |
| SLKRIDWNIQYLSLPPVIKHCKKCGKKTEFICSGMFRINAQRKYLDVWLIYKCSNCNSTWNMTIYTRVKPKSIEPKLLEAFHNNDKELAERYAVNLELIRKNGVELGYTKYKIIGEDINFRIPVELHIKSTYPSQLKVAALIREKLNLSQSSFESLITKGLIRGDTEINLKKCRLRTEVIVIIDSLDWSEVAFALAL | soluble |
| MTTKKADYIWFNGEMVRWEDAKVHVMSHALHYGTSVFEGIRCYDSHKGPVVFRHREHMQRLHDSAKIYRFPVSQSIDELMEACRDVIRKNNLTSAYIRPLIFVGDVGMGVNPPAGYSTDVIIAAFPWGAYLGAEALEQGIDAMVSSWNRAAPNTIPTAAKAGGNYLSSLLVGSEARRHGYQEGIALDVNGYISEGAGENLFEVKDGVLFTPPFTSSALPGITRDAIIKLAKELGIEVREQVLSRESLYLADEVFMSGTAAEITPVRSVDGIQVGEGRCGPVTKRIQQAFFGLFTGETEDKWGWLDQVNQ | soluble |
| MKTINVFHYDAFTNKPNMGNPAGIVLDADGLTEEEMQRIAEKVGFNETSFVLSSEVADIRMRYFTPGYEMDLCGHGTVGTIYALRERGLLEEKASLTIETKAGILPIQIGVNENGETFIKMRQTAPQFKDFAGSKEELAHSIGLEVNDLDVSLPIVYGSTGNWTVIVPVKNLDVCERMKPNNEVFPSVLKEIPNASIHPICLETYDEKVHMHGRHFSSAYAGTIEDPVTGTASGVMGAYYATYVEKDFDHEMELIVEQGQEIHKDGRVTVYVTKDVESEKLQIDIAGTAVYVKEFEVLI | soluble |
| MAHHHHHHMVFFFPSFFFHNHDRELSCGKVSKAFIYIKKIHKMRRVSSLKEYNSLKEEAGNGLGLVVHFSASWCEPCKNVGSMLEGYLSQYNQKVLFAEVDADLVTNVCEAENVECVPFIVFFRTSSRERAQERVADVVGGKLDHLEMNLVSLYGNGHDTRESFPDLNEYLKYLTSRKGVVAFITGTPSRPRCGFTGRLVEIFYELGIKFIYYDVWASDEVCEGLKKYSEWPTYPQVYVDGELIGGYDICSQLKESGELKAILKH | soluble |
| MGSDKIHHHHHHMMDMLIAHISDTHITNEVAFKSYAYDLIVNEINTKPFDLVVHTGDVTNNGLREEYEHASYLIKKIEKPLVVVPGNHDARNVGYELFEKYIGPLYGVYEFDNGVIIWLDSTIPDLSDGRVGGYKFKWLKEKLEAYSHKKIKIVAAHHHLVPLPDTGRERNVLFNAGDVLDLLLTHEVTLYMCGHKHVPNVYRVEDLVVDNAGCASCRKTRKGDVNSYNIVKITDKGVKVVIRRLTGDEESKEHNPIRPKIFIPRGRRLLRIVQISESNVSDRVYFRKRTLENAIKAINEKYKPDIVIHCGDVVEKGIERYYEKAMEYYEKVKGEKIIVPGHNDISYLGYELFREYFGEPEVLELGDFVFIPILSAQYETQIGVVGRTGQKMLSRMLEEFREKFRIVIMHHNLVPVPGVKEIGYLEDAGNVLKIITENETELTLTGHGGNTSAVKVEKSPIINAGSISWELHRNPFGNSFNIIDIYEDMVVAFEIQATWGSRKVLGMWKIKSEIPWL | not soluble |
| GKTMKMRKFTIADASLERSPGQEADISVGNLVDERHGGPITIGYGRYAPGQSLTETMAVDDVMIVLEGRLSVSTDGETVTAGPGEIVYMPKGETVTIRSHEEGALTAYVTYPHWRPAHA | soluble |
| GSRNHCPHLDSVGEITKEDLIQKSLGTCQDCKVQGPNLWACLENRCSYVGCGESQVDHSTIHSQETKHYLTVNLTTLRVWCYACSKEVFLDRKLGTQ | soluble |
| MAHHHHHHMKVKKKIVKKINKNSNVKIYKSSKHVNEVNNNTLTNNNEVKQNNEYYESFFIPKNLTEFNFKDNDKQLYYLMSLLNEIHDIFYIMLEQFKRKETNDENRDDQIYNYFLRYPVVRTILTQYRKQVLKGFTFNISLLSDDIKRSDFMDNIVKFGGLINNQDYNHLLTVNTFIENENIKNVSTSNLMWLERALYTWK | not soluble |
| SENLYFQGSASATCERCKGGFAPAEKIVNSNGELYHEQCFVCAQCFQQFPEGLFYEFEGRKYCEHDFQMLFA | soluble |
| MRGENTMTPVFELKNVNYYYDHKKVLENINIKINKGEFLAIVGPNGAGKSTLLKLILGLLPLQSGEIFVEGIDFKNKKTSIKLSYVSQKANAFNSGFPASVKEVVLSGLTKTKRLFQTFNSKDNEKVIKVLERLNISDLIHKNIAELSGGQQQRVMIARALISEPAVLVLDEPTNGIDAKHVSEFYNTLDQLKQEGITIILVTHDIGVVADTATEVACLNKHLHFHGTTDEFKSLDEVEISKIYGHPVRFVDHQHNRECCN | not soluble |
| MSLKIVNITTQVESIELKTPFKTALRQTSHVEFVRVEVECDNGFVGIGEASATKVITGEDIYIILTSIASVEELFLNLTCEEALGALHTKCAIGSSAKASLDIAFVHLLSQEAKKPLYEYFGATDKSALKSDITISLNEADVMLNDAKKAFSNGMDILKIKVGSDILHAIDIVRKIAKELPECDILVDANQAWSFENTVLFIENMLNTPIKLIEQPVEAPNLDGLKKITELSHIPILADEAVFTLKDAKKVIEEKCADMINIKLMKCGGVSKAIEILEFARNREFKCMLGSMLEGPYSINMALHLAFAYRDVIEFVDLDSPLLYKEMPKELDFVFDGCEIKPLEGHHHHHH | soluble |
| MAHHHHHHMAVESRSRVTSKLVKAHRAMLNSVTQEDLKVDRLPGADYPNPSKKYSSRTEFRDKTDYIMYNPRPRDEPSSENPVSVSPLLCELAAARSRIHFNPTETTIGIVTCGGICPGLNDVIRSITLTGINVYNVKRVIGFRFGYWGLSKKGSQTAIELHRGRVTNIHHYGGTILGSSRGPQDPKEMVDTLERLGVNILFTVGGDGTQRGALVISQEAKRRGVDISVFGVPKTIDNDLSFSHRTFGFQTAVEKAVQAIRAAYAEAVSANYGVGVVKLMGRDSGFIAAQAAVASAQANICLVPENPISEQEVMSLLERRFCHSRSCVIIVAEGFGQDWGRGSGGYDASGNKKLIDIGVILTEKVKAFLKANKSRYPDSTVKYIDPSYMIRACPPSANDALFCATLATLAVHEAMAGATGCIIAMRHNNYILVPIKVATSVRRVLDLRGQLWRQVREITVDLGSDVRLARKLEIRRELEAINRNRDRLHEELAKL | not soluble |
| MHSDEEIFKDTTTKALLQLLKKDIDFHEYCYQEIFPRGKEIKMNDNKNFKIYLVESGYFAYCLKNEYGDFGIISFVGGEIAINLIPLIKEEPEDAFLRCLTQVRCWVLDPDFVGRVLDENNQKAKFLLSNLLYTRKVYFKASKRTFMKKELRIRACLKEIGLYMGRVTKDKDFILPDEINNSILAQYANTTREYTNIIVLKLRKEGILDDSHKPWVIKKIDEL | not soluble |
